Experimental data from paper PMC7698151, “Evidence for Pentapeptide-Dependent and Independent CheB Methylesterases” (International Journal of Molecular Sciences, 2020).
Read-outs that look alike come from different tables or passages of the source.

Experiments:
[1] = target: McpB (Aer2) pentapeptide (Pseudomonas aeruginosa); conditions: cited from earlier work
[2] = target: Tar methylation site (Escherichia coli) (UniProt P07017); conditions: cited from earlier work
[3] = target: Tar pentapeptide (Escherichia coli); conditions: cited from earlier work
[4] = target: Tar pentapeptide (Escherichia coli); conditions: cited from earlier work; remark: listed apart in the source
[5] = target: P. aeruginosa PAO1 CheB2 D55E mutant (Pseudomonas aeruginosa PAO1) (UniProt Q9I6V9); test: ITC

Chain of CheR (P07364 whole entry): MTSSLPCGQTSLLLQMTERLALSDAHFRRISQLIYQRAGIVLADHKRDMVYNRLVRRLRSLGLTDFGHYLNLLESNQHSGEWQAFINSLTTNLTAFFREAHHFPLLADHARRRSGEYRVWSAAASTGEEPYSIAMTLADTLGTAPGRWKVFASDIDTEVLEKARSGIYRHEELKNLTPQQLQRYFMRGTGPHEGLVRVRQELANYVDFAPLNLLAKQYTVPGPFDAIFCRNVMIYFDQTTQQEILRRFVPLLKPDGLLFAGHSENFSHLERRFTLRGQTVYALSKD
Chain of CheB (P07330 whole entry): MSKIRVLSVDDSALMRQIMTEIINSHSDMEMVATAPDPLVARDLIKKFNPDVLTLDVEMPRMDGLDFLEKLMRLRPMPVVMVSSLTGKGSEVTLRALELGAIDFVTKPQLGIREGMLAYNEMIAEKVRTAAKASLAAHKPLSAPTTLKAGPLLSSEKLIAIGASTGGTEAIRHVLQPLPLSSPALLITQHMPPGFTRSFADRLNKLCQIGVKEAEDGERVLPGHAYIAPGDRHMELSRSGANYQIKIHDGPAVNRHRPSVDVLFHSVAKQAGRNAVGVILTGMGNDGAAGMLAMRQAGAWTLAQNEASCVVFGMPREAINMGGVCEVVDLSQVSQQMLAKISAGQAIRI

In the case of CheR2 (from UniProt Q9I6V7), the Kd [1] is given as 0.52 µM.

For CheR (from UniProt P07364), the Kd [2] is given as 150 µM and the Kd [3] is given as 2 µM.

For CheB (from UniProt P07330), the Kd [4] is listed as 145 µM.

With “[…] pentapeptide of the McpB (Aer2) chemoreceptor” the Kd [5] was 56 µM.
